Key:
6× His-tagged PRMT5 = target: T1, 6× His-tagged PRMT5 (human, UniProt O14744 1-637); assay: pull-down; binding reaction (500 μl) with 100 μl purified His-p16^INK4a (or His-PRMT5) and increasing amounts (50, 100, 200, 400 μl) of purified His-PRMT5 (or His-p16^INK4a) incubated with GST-fused CDK4 1-70 aa; Western blot; details: both partners purified
T1 construct: protein arginine methyltransferase 5 (PRMT5), human; also called His-PRMT5

6× His-tagged p16^INK4a = target: T2, 6× His-tagged p16^INK4a (human, UniProt P42771 1-156); assay: as above; details: both partners purified
T2 construct: p16^INK4a, the major isoform of CDKN2A, human; also called His-p16^INK4a; CDKN2A
T2 sequence (looked up): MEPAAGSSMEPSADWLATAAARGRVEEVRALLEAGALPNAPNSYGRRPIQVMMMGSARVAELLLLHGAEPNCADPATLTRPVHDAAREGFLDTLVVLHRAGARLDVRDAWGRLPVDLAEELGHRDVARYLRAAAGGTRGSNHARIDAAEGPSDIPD

T1 sequence (O14744 whole entry, the tested form may be a part): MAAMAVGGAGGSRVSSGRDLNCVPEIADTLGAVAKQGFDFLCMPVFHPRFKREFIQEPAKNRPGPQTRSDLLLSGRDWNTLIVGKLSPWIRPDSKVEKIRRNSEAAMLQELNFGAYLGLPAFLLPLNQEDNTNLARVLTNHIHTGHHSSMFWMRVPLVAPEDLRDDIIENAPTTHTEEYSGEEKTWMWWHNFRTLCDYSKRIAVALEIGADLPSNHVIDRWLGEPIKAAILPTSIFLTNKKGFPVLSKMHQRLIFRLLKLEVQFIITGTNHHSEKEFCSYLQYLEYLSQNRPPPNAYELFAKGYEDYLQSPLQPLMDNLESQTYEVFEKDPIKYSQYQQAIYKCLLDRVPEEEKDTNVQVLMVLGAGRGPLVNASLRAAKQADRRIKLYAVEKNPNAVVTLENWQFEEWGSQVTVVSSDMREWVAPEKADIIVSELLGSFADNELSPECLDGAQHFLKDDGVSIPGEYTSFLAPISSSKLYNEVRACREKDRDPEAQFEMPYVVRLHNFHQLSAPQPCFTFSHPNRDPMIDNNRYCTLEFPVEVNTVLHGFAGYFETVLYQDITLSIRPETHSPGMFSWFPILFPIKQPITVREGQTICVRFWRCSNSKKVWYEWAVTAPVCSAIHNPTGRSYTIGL

B1: GST-fused CDK4 1-70 aa (domain or fragment, human, UniProt P11802-1 1-70, looked up)
chain: MATSRYEPVAEIGVGAYGTVYKARDPHSGHFVALKSVRVPNGGGGGGGLPISTVREVALLRRLEAFEHPN
notes: cyclin dependent kinase 4 (CDK4), human, amino acids 1-70 of NP_000066; also called GST-CDK4 fragment 1-70; source: E. coli BL21, purified (glutathione-Sepharose 4B beads)
B1: binds (6× His-tagged PRMT5); binds (6× His-tagged p16^INK4a).

— publication PMC5342150, “PRMT5 competitively binds to CDK4 to promote G1-S transition upon glucose induction in hepatocellular carcinoma” (Oncotarget, 2016)
